The target of test [1] is EBV LMP1-C (latent membrane protein 1, C-terminal domain, amino acids 186-387) (Epstein-Barr virus) (UniProt P03230). As to the kind of experiment: SPR; Biacore T200; LMP1-C and LMP2A-N immobilised on sensor chip CM5 as ligands; affibody molecules injected as analytes in serial dilutions; 1:1 Langmuir fit.
Test [2] addresses EBV LMP2A-N (latent membrane protein 2A, N-terminal domain, amino acids 1-119) (Epstein-Barr virus) (UniProt P13285). The test is described as above.
Sequence of UniProt P13285 (P13285 1-119): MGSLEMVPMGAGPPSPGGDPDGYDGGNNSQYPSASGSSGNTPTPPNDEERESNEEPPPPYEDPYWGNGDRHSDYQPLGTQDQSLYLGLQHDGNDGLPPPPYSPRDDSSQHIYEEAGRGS

Among the data in PMC10299379 are koff values, retold here.

Sequence of UniProt P03230 (P03230 186-386): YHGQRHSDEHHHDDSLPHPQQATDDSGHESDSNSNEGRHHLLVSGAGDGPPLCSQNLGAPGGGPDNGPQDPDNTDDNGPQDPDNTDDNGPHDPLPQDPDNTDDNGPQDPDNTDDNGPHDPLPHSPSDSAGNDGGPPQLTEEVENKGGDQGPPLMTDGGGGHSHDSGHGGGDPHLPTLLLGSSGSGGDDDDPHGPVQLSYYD

Broadly, the koff is the first-order rate constant of dissociation. Read a low koff as slow dissociation. As for “SPA-Z scaffold (ZWT) (domain or fragment)”, the koff in test [1] came out at 0.00246 s⁻¹; in test [2] it was 5.97e-05 s⁻¹.
